The text below walks through data of patent publication US20040250304A1 (EISAI R AND D MANAGEMENT, published 2004).

Test [1] deals with T1, synthetic Aβ (1-42) peptide (UniProt P05067 672-713).
T1 construct: domain: Aβ (1-42); also called beta-amyloid; amyloid-beta peptide
Nature of the test: solid phase binding: Aβ (1-42) immobilized on 96-well plates, culture supernatant applied, detection with anti-CLAC antibody and peroxidase secondary antibody, TMB; ten trials. How it is done:
In vitro binding of CLAC to Aβ was performed according to a method of Webster et al. (Am. J. Pathol., 150, 1531 (1997)).
The transformant (strain 9D2-1) permanently expressing human CLAC-P obtained in Example 3 was selection-cultured in DMEM medium containing 10% FBS and hygromycin for 4 days, and the culture supernatant was collected. Fifty μl (0.1 mg/ml) of synthetic Aβ (1-42) (Bachem) was immobilized to each well of 96-well micro-well plates (Greiner), and dried in a desiccator. Thereafter, blocking was performed with PBS-T containing 1% gelatin (Wako Junyaku) for 1 hour, and washed with PBS-T for 10 min (3×), and the culture supernatant obtained was applied. Similarly, culture supernatant of control HEK293 cells used in Example 3 was applied. After reaction at room temperature for 1 hour, washed with PBS-T for 10 min (5×), and then reacted with anti-CLAC antibody diluted with similar blocking solution (1/5000) at room temperature for 1 hour. After washing with PBS-T for 10 min (5×), reacted with a secondary antibody (anti-rabbit Ig, horseradish peroxidase bound whole antibody (Amersham)) diluted with similar blocking solution (1/5000) at room temperature for 1 hour. After washing with PBS-T for 10 min (5×), colour was developed with TMB reagent (Kirkegard & Perry Laboratories).

Test [2] concerns the target T1, synthetic Aβ (1-42) peptide. The test is described as follows: Aβ (1-42) binding to HEK293 cells expressing human CLAC-P; Western blotting.

T1 sequence (P05067 672-713 limits assumed): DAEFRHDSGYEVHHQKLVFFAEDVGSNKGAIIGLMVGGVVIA

B1: CLAC secreted by HEK293 transformant strain 9D2-1 permanently expressing human CLAC-P (other)
chain: EAPSECNCPAGPPGKRGKRGRRGESGPPGQPGPQGPPGPKGDKGEQGDQGPRMVFPKINHGFLSADQQLIKRRLIKGDQGQAGPPGPPGPPGPRGPPGDTGKDGPRGMPGVPGEPGKPGEQGLMGPLGPPGQKGSIGAPGIPGMNGQKGEPGLPGAVGQNGIPGPKGEPGEQGEKGDAGENGPKGDTGEKGDPGSSAAGIKGEPGESGRPGQKGEPGLPGLPGLPGIKGEPGFIGPQGEPGLPGLPGTKGERGEAGPPGRGERGEPGAPGPKGKQGESGTRGPKGSKGDRGEKGDSGAQGPRGPPGQKGDQGATKIIDYNGNLHEALQRITTLTVTGPPGPPGPQGLQGPKGEQGSPGIPGMDGEQGLKGSKGDMGDPGMTGEKGGIGLPGLPGANGMKGEKGDSGMPGPQGPSIIGPPGPPGPHGPPGPMGPHGLPGPKGTDGPMGPHGPAGPKGERGEKGAMGEPGPRGPYGLPGKDGEPGLDGFPGPRGEKGDLGEKGEKGFRGVKGEKGEPGQPGLDGLDAPCQLGPDGLPMPGCWQK
modifications: Usually, the first amino acid Glu of CLAC is cyclized to be pyroglutamic acid residue
notes: also called crude purified CLAC; culture supernatant of transformant permanently expressing CLAC-P
In the case of B1, the “fold colour development against control HEK293 supernatant” value in test [1] is approximately 50 times.

B2: human CLAC-P (precursor of CLAC), full length (receptor)
chain: MLLKKHAGKGGGREPRSEDPTPAEQHCSRTMPPCAVLAALLSVVAVVSCLYLGVKTNDLQARIAALESAKGAPSIHLLPDTLDHLKTMVQEKVERLLAQKSYEHMAKIRIAREAPSECNCPAGPPGKRGKRGRRGESGPPGQPGPQGPPGPKGDKGEQGDQGPRMVFPKINHGFLSADQQLIKRRLIKGDQGQAGPPGPPGPPGPRGPPGDTGKDGPRGMPGVPGEPGKPGEQGLMGPLGPPGQKGSIGAPGIPGMNGQKGEPGLPGAVGQNGIPGPKGEPGEQGEKGDAGENGPKGDTGEKGDPGSSAAGIKGEPGESGRPGQKGEPGLPGLPGLPGIKGEPGFIGPQGEPGLPGLPGTKGERGEAGPPGRGERGEPGAPGPKGKQGESGTRGPKGSKGDRGEKGDSGAQGPRGPPGQKGDQGATKIIDYNGNLHEALQRITTLTVTGPPGPPGPQGLQGPKGEQGSPGIPGMDGEQGLKGSKGDMGDPGMTGEKGGIGLPGLPGANGMKGEKGDSGMPGPQGPSIIGPPGPPGPHGPPGPMGPHGLPGPKGTDGPMGPHGPAGPKGERGEKGAMGEPGPRGPYGLPGKDGEPGLDGFPGPRGEKGDLGEKGEKGFRGVKGEKGEPGQPGLDGLDAPCQLGPDGLPMPGCWQK
notes: Type II single pass transmembrane protein of 654 amino acids, expressed permanently in HEK293 cells (strains 9D2-1, 9D2-2, 9D2-11); also called full length recombinant CLAC-P protein; 9D2 antigen precursor
As to B2, the binding result in test [2] is on record as “binds”.
